In the Immune Epitope Database (IEDB) one finds Kd data, which are given here for 30 sequences.

Test in all cases: IEDB peptide-MHC binding, purified MHC/competitive/radioactivity; filed as Kd, often an IC50 or EC50 that approximates it; ≥ and ≤ were set here for values at or beyond the usual limits of such assays
Assay [1] deals with HLA-A*02:02.
In assay [2] the target is HLA-A*02:03.
The target in assay [3] is HLA-A*02:06.
In assay [4] the target is HLA-A*33:01.
The target in assay [5] is HLA-A*03:01.
The target in assay [6] is HLA-A*31:01.
Assay [7] addresses HLA-A*11:01.
The target of assay [8] is HLA-A*68:01.
Where [9] appears, read: source organism: Vaccinia virus WR.
Setting [10] is: source organism: SARS coronavirus Tor2.
Where [11] appears, read: source organism: Mammarenavirus machupoense.
Where [12] appears, read: source organism: Mammarenavirus lassaense.
The mark [13] stands for this setting: source organism: Lassa virus Josiah.
Setting [14] is: source organism: Mammarenavirus guanaritoense.

A value given as a limit tells only on which side of the number the result lay.

By Kd is commonly meant the equilibrium constant for the complex coming apart. As for LIKTLSPAHL, the dissociation constant (Kd) in assay [1] (setting [9]) was 1850 nM; in assay [2] (setting [9]), 356 nM; in assay [3] (setting [9]), 10200 nM.

For the sequence LILSNKLLYA, the Kd in assay [1] (setting [9]) came to 468 nM; in assay [2] (setting [9]), 122 nM; in assay [3] (setting [9]) it was 36.1 nM.

Regarding LIVNSVLLFL, the Kd in assay [1] (setting [10]) is 3.67 nM; in assay [2] (setting [10]) it was 90.4 nM; in assay [3] (setting [10]) it was 10.8 nM.

Regarding LLDCIMYQS, the figures for the Kd in assay [1] (setting [11]), in assay [2] (setting [11]) and in assay [3] (setting [11]) were 1530 nM, 2270 nM and 3280 nM, respectively.

For LLWDYMCIS, the Kd is 146 nM in assay [1] (setting [12]), 596 nM in assay [2] (setting [12]) and 408 nM in assay [3] (setting [12]).

For LNCLSLLLSV, the Kd in assay [1] (setting [12]) worked out at 123 nM; in assay [2] (setting [12]), 230 nM; in assay [3] (setting [12]), 250 nM.

Regarding LNQAVNNLV, the Kd in assay [1] (setting [13]) was 510 nM; in assay [2] (setting [13]) it was 3350 nM; in assay [3] (setting [13]) it was 13600 nM.

Turning to LTGTFVTAFI, the Kd in assay [1] (setting [9]) came to 672 nM; in assay [2] (setting [9]) it was 596 nM; in assay [3] (setting [9]) it was 413 nM.

In the case of LTLKGMSYV, in assay [3] (source organism: Dengue virus 1 Singapore/S275/1990), the Kd was 7 nM.

For NTGMGMYYPT, the dissociation constant (Kd) is no less than 23400 nM in assay [1] (setting [9]), no less than 21000 nM in assay [2] (setting [9]) and 11400 nM in assay [3] (setting [9]).

Consider NTITTFIPI, for which the Kd came to 15500 nM in assay [1] (setting [9]), 988 nM in assay [2] (setting [9]) and 7770 nM in assay [3] (setting [9]).

For PLPSLEYGA, the Kd in assay [1] (setting [9]) was 11400 nM; in assay [2] (setting [9]), 18900 nM; in assay [3] (setting [9]) it was no less than 42500 nM.

PLSPDTCLLA: the Kd in assay [1] (setting [9]) turned out to be 11200 nM; in assay [2] (setting [9]), 9310 nM; in assay [3] (setting [9]), 19900 nM.

As to PLVAGGLLTV, the Kd in assay [2] (source organism: Dengue virus 2 Jamaica/1409/1983) was determined as 35.1 nM.

In the case of QIFNIISYII, the Kd in assay [1] (setting [9]) worked out at 288 nM; in assay [2] (setting [9]) it was 206 nM; in assay [3] (setting [9]) it was 743 nM.

Turning to QLFNHTMFIL, the Kd was determined as 0.423 nM in assay [1] (source organism: Homo sapiens) and 8.18 nM in assay [2] (source organism: Homo sapiens).

On to RLASNAICSA, for which, in assay [2] (source organism: Dengue virus 3 Martinique/1243/1999), the Kd was determined as 135 nM.

As for RLQMAGVEV, the Kd in assay [1] (setting [9]) came out at 326 nM; in assay [2] (setting [9]), 531 nM; in assay [3] (setting [9]) it was 4110 nM.

As to SAGFTATICL, the Kd is 6900 nM in assay [1] (setting [9]), no less than 20100 nM in assay [2] (setting [9]) and 2410 nM in assay [3] (setting [9]).

For the sequence SIDHCSSFIV, the Kd was 172 nM in assay [1] (setting [9]), 772 nM in assay [2] (setting [9]) and 30.3 nM in assay [3] (setting [9]).

VCEEFFHQK: the Kd in assay [4] (setting [14]) was no less than 77700 nM; in assay [5] (setting [14]), 11600 nM; in assay [6] (setting [14]), no less than 22200 nM; in assay [7] (setting [14]), 621 nM; in assay [8] (setting [14]), 5950 nM.

Consider VIPFDDIVR, for which the Kd in assay [4] (setting [9]) was 302 nM; in assay [5] (setting [9]) it was no less than 78000 nM; in assay [6] (setting [9]), 338 nM; in assay [7] (setting [9]), 9600 nM; in assay [8] (setting [9]) it was 174 nM.

With VIVVPVIDR, the Kd in assay [4] (setting [9]) is no less than 77700 nM; in assay [5] (setting [9]), no less than 78000 nM; in assay [6] (setting [9]) it was 9910 nM; in assay [7] (setting [9]), 675 nM; in assay [8] (setting [9]), 279 nM.

Consider VMANNVKKK, for which the Kd in assay [4] (setting [9]) is no less than 75200 nM; in assay [5] (setting [9]) it was 31.8 nM; in assay [6] (setting [9]), 3910 nM; in assay [7] (setting [9]), 215 nM; in assay [8] (setting [9]) it was 6170 nM.

VSIILANERY: the Kd in assay [4] (setting [9]) was determined as 19000 nM; in assay [5] (setting [9]) it was 12800 nM; in assay [6] (setting [9]), 8590 nM; in assay [7] (setting [9]) it was 1420 nM; in assay [8] (setting [9]), 3850 nM.

As to VTISKDNLER, the Kd in assay [4] (setting [9]) was 357 nM; in assay [5] (setting [9]), no less than 39000 nM; in assay [6] (setting [9]), 118 nM; in assay [7] (setting [9]), 13.7 nM; in assay [8] (setting [9]), 62.6 nM.

On to VTSLAIKNYY, for which the Kd in assay [4] (setting [9]) is 420 nM; in assay [5] (setting [9]), 206 nM; in assay [6] (setting [9]) it was 281 nM; in assay [7] (setting [9]), 21.7 nM; in assay [8] (setting [9]), 112 nM.

On to VVKLTAVCMK, for which the Kd in assay [4] (setting [9]) turned out to be 2680 nM; in assay [5] (setting [9]), 115 nM; in assay [6] (setting [9]) it was 208 nM; in assay [7] (setting [9]), 121 nM; in assay [8] (setting [9]), 723 nM.

For YTVEFDRDK, the Kd in assay [4] (setting [9]) was no less than 44800 nM; in assay [5] (setting [9]) it was no less than 78000 nM; in assay [6] (setting [9]), no less than 33400 nM; in assay [7] (setting [9]), 18900 nM; in assay [8] (setting [9]) it was 1.25 nM.

Take YVIRHVDGK: the Kd in assay [4] (setting [9]) was no less than 77700 nM; in assay [5] (setting [9]), 1450 nM; in assay [6] (setting [9]) it was no less than 77900 nM; in assay [7] (setting [9]) it was 10.2 nM; in assay [8] (setting [9]) it was 1.72 nM.
